Target: T1, IKKi (endogenous, MEFs) (mouse (MEFs), UniProt Q9R0T8 1-717)
T1 sequence (looked up): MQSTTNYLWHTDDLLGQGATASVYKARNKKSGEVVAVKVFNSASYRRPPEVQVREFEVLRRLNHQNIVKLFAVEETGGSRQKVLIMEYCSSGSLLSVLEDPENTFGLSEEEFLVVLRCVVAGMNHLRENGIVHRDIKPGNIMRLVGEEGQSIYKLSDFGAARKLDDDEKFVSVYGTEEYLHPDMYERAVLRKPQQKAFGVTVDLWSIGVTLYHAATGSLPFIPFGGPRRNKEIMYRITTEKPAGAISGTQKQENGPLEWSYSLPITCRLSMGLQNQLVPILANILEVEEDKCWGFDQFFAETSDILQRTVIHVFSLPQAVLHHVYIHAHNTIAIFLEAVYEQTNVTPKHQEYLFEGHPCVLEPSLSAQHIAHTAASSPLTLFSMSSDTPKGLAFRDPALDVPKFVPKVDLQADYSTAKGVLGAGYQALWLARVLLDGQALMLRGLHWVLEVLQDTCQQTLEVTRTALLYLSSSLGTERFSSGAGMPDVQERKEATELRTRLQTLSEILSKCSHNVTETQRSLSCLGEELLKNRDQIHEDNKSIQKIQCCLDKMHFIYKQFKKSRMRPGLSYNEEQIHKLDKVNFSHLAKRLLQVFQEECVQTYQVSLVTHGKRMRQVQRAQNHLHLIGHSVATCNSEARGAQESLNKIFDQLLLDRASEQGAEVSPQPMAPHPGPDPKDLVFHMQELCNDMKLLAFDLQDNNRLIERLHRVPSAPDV
Assay: anti-FLAG immunoprecipitation from cytoplasmic and nuclear fractions of reconstituted MEFs (FIG. 5G)
Procedure: Immunoblot, immunoprecipitation and nuclear fractionation: Cell were harvested and lysed on ice in a lysis buffer containing 0.5% Triton X-100, 20 mM Hepes pH 7.4, 150 mM NaCl, 12.5 mM-glycerophosphate, 1.5 mM MgCl2, 10 mM NaF, 2 mM dithiothreitol, 1 mM sodium orthovanadate, 2 mM EGTA, […], and 1 mM phenylmethylsulfonyl fluoride for 20 minutes, followed by centrifuging at 12,000 rpm for 15 minutes to extract clear lysates. For immunoprecipitation, cell lysates were incubated with 1 μg of antibody and A-sepharose beads at 4 degree overnight. After incubation, the beads were washed four times with lysis buffer and the precipitates were eluted with 2× sample buffer. Elutes and whole cell extracts were resolved on SDS-PAGE followed by immunobloting with antibodies. Nuclear fractionation was performed using NUCLEI EZ PREP kit purchased from Sigma in accordance with the manufacturer's instruction. Nuclear pellets were suspended in 30p1 of nuclear extraction buffer (20 mM HEPES, 400 mM NaCl, 1 mM EDTA, 1 mM EGTA in water, pH 7.9) containing freshly prepared 1 mM DTT and protease inhibitor cocktail. After 1.5 h incubation on ice bath with intermittent vortexing, extracts were centrifuged and supernatant was collected for immunoprecipitation.

binding result: binds
B1: FLAG-tagged mouse wild-type Act1 (WT) (other, UniProt Q8N7N6 1-555, looked up)
chain: MNRSIPVEVDESEPFPSQLLKPIPEYSPEEELEPPAPNTRNMAPSSLSVLQCPPLKLANHQPVSQQVTCLRAKVLEEGEASFFRRHPELGKDISSCSSGASEPESELGALPPEHRFTLTEKRNRWLGSQLSAASPDTGHESDKSDPSLPNALADSFSGGQEMMPRPRPRPGPHRHRAAPDVPTIDTGYDSQPQDVLGIRQLERPLPLTSSCYLQDLPGPLRSRELPPQFELERYPMNAQLLPPHPSPQAPWNCQYYCPGGPYHHQVPHGHGYPPAAAYQQVLQPALPGQVLPGARARGPRPVQKVILNDSSPQDQEERPAQRDFSFPRLPRDQLYRPPSNGVEAPEESLDLPAELRPHGPQAPSLAAVPRPPSNPLARGTLRTSNLPEELRKVFITYSMDTAMEVVKFVNFLLVNGFQTAIDIFEDRIRGIDIIKWMERYLRDKTVMIIVAISPKYKQDVEGAESQLDEDEHGLHTKYIHRMMQIEFISQGSMNFRFIPVLFPNAKKEHVPTWLQNTHVYSWPKNKKNILLRLLREEEYVAPPRGPLPTLQVVPL
notes: also called flag-tagged mAct1; flag-Act1; not shown: FLAG tag
